Assay results from article PMC9238395, “Identification and Tetramer Structure of Hemin-Binding Protein SPD_0310 Linked to Iron Homeostasis and Virulence of Streptococcus pneumoniae” (mSystems, 2022).

T1: SPD_0310 (Streptococcus pneumoniae, UniProt Q04MC1, M38A/L39A/G88A/R97A)
T1 sequence (Q04MC1 1-494 M38A/L39A/G88A/R97A): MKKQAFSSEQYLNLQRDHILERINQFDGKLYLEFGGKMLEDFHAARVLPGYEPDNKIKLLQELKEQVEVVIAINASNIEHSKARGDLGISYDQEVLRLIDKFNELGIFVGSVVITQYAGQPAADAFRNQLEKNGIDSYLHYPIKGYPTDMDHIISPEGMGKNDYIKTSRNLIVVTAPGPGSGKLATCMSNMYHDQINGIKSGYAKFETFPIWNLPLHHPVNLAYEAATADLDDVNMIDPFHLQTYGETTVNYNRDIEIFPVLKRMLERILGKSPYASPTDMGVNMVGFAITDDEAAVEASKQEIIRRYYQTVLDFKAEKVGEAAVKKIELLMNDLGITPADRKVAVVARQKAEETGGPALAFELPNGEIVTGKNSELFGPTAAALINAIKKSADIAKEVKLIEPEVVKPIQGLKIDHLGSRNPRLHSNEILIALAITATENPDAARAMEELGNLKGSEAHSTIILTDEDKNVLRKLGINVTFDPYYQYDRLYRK

T2: SPD_0310 (Streptococcus pneumoniae, UniProt Q04MC1, E40A/R307A)
T2 sequence (Q04MC1 1-494 E40A/R307A): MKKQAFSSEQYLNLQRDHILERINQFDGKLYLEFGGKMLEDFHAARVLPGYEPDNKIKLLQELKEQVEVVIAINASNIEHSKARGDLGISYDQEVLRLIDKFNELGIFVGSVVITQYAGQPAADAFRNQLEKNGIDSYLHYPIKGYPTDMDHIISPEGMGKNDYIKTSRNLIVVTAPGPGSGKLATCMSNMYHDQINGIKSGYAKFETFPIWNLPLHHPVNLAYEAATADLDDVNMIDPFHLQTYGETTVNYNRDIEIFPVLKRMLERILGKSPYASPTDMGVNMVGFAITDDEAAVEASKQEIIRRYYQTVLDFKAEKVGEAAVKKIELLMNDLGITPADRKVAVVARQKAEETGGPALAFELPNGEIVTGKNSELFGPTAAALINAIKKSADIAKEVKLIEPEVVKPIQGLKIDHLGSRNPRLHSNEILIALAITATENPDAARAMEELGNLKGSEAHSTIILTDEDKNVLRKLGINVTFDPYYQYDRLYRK

B1: SPD_0310 (natural protein)
chain: MKKQAFSSEQYLNLQRDHILERINQFDGKLYLEFGGKMLEDFHAARVLPGYEPDNKIKLLQELKEQVEVVIAINASNIEHSKARGDLGISYDQEVLRLIDKFNELGIFVGSVVITQYAGQPAADAFRNQLEKNGIDSYLHYPIKGYPTDMDHIISPEGMGKNDYIKTSRNLIVVTAPGPGSGKLATCMSNMYHDQINGIKSGYAKFETFPIWNLPLHHPVNLAYEAATADLDDVNMIDPFHLQTYGETTVNYNRDIEIFPVLKRMLERILGKSPYASPTDMGVNMVGFAITDDEAAVEASKQEIIRRYYQTVLDFKAEKVGEAAVKKIELLMNDLGITPADRKVAVVARQKAEETGGPALAFELPNGEIVTGKNSELFGPTAAALINAIKKSADIAKEVKLIEPEVVKPIQGLKIDHLGSRNPRLHSNEILIALAITATENPDAARAMEELGNLKGSEAHSTIILTDEDKNVLRKLGINVTFDPYYQYDRLYRK
notes: SPD_0310, hypothetical protein of the UPF0371 family, S. pneumoniae D39; spd_0310 gene cloned from genomic DNA into pGEX-4T-1 (BamH I/Sal I); Homotetramer by crystal structure and DLS; also called apo-0310; apo-SPD_0310

Experiments:
SPD_0310 [1] = target: T1, SPD_0310; experiment: fluorescence quenching titration; format: binding
SPD_0310 [2] = target: T3, SPD_0310 (Streptococcus pneumoniae, UniProt Q04MC1); experiment: SPR; also dialysis/ICP-MS, hemin-agarose pulldown, UV-Vis shift, CD thermal shift, stopped-flow fluorescence; format: binding
T3 construct: recombinant SPD_0310 expressed from pGEX-4T-1, GST tag removed with thrombin; homotetramer

SPD_0310 [3] = target: T2, SPD_0310; experiment: fluorescence quenching titration; format: binding
[4] = target: SPD_0310 (S. pneumoniae D39) (UniProt Q04MC1); experiment: SPR; OpenSPR; SPD_0310 immobilised on a gold nanoparticle COOH sensor chip; analytes in 1× PBS, 30 μL/min; regeneration with 0.5 to ~10 mM HCl; 1:1 model
SPD_0310 [5] = target: B1; experiment: as above; details: both partners purified
[6] = target: the molecule itself; experiment: dynamic light scattering; fresh SPD_0310 in the native state, 3 μM in 1× PBS, 25°C

Molecule	Kd (SPD_0310 [5])	further results
C=CC1=C(C)C2=Cc3c(C=C)c(C)c4[n]3[Fe]([Cl])[n]3c(c(C)c(CCC(=O)O)c3=CC3=NC(=C4)C(C)=C3CCC(=O)O)=CC1=N2 [hemin]	–	% of WT binding constant (SPD_0310 [1]): 56 % of WT binding constant; Kd (SPD_0310 [2]): 96.9 nM; % of WT binding constant (SPD_0310 [3]): 11 % of WT binding constant
bovine lactoferrin (natural protein)	–	Kd [4]: 303 nM
SPD_0226 (natural protein, SPD_0226, intracellular iron transporter of S. pneumoniae D39) MTVGLSYEDSAVKLLNDGANIKVVYPKEGTVFLPASAAIVKKSKNMENAKKFIDFIISQEVQDTLGTTTTNRPVRKNAKTSENMKPIDKIKTLTEDYDYVIKNKSDIVKKYNEVFTDIQSKQ	1070 ± 100 nM	–
SPD_0090 (natural protein, S. pneumoniae D39, UniProt A0A0H2ZQK8 1-491, looked up, source: expressed and purified using the GST system) CGNLTGNSKKAADSGDKPVIKMYQIGDKPDNLDELLANANKIIEEKVGAKLDIQYLGWGDYGKKMSVITSSGENYDIAFADNYIVNAQKGAYADLTELYKKEGKDLYKALDPAYIKGNTVNGKIYAVPVAANVASSQNFAFNGTLLAKYGIDISGVTSYETLEPVLKQIKEKAPDVVPFAIGKVFIPSDNFDYPVANGLPFVIDLEGDTTKVVNRYEVPRFKEHLKTLHKFYEAGYIPKDVATSDTSFDLQQDTWFVREETVGPADYGNSLLSRVANKDIQIKPITNFIKKNQTTQVANFVISNNSKNKEKSMEILNLLNTNPELLNGLVYGPEGKNWEKIEGKENRVRVLDGYKGNTHMGGWNTGNNWILYINENVTDQQIENSKKELAEAKESPALGFIFNTDNVKSEISAIANTMQQFDTAINTGTVDPDKAIPELMEKLKSEGAYEKVLNEMQKQYDEFLKNKK	3.41 ± 0.01 nM	–
GAPDH (natural protein, S. pneumoniae D39, UniProt A0A0H2US80 1-335, looked up, GAPDH (Gap) of S. pneumoniae D39, recombinant; also called Gly-3-pho dehydrogenase; source: expressed and purified using the GST system) MVVKVGINGFGRIGRLAFRRIQNVEGVEVTRINDLTDPVMLAHLLKYDTTQGRFDGTVEVKEGGFEVNGKFIKVSAERDPEQIDWATDGVEIVLEATGFFAKKEAAEKHLKGGAKKVVITAPGGNDVKTVVFNTNHDVLDGTETVISGASCTTNCLAPMAKALQDNFGVVEGLMTTIHAYTGDQMILDGPHRGGDLRRARAGAANIVPNSTGAAKAIGLVIPELNGKLDGSAQRVPTPTGSVTELVAVLEKNVTVDEVNAAMKAASNESYGYTEDPIVSSDIVGMSYGSLFDATQTKVLDVDGKQLVKVVSWYDNEMSYTAQLVRTLEYFAKIAK	103 ± 1.29 nM	–
SPD_1609 (natural protein, S. pneumoniae D39, UniProt A0A0H2ZL87 1-355, looked up, source: expressed and purified using the GST system) CSGGSNSTTASSSEEKADKSQELVIYSNSVSNGRGDWLTAKAKEAGFNIKMVDIAGAQLADRVIAEKNNAVADMVFGIGAVDSNKIRDQKLLVQYKPKWLDKIDQSLSDKDNYYNPVIVQPLVLIGAPDVKEMPKDWTELGSKYKGKYSIYGLQGGTGRAILASILVRYLDEKGDLGVSEKGWEVAKEYFANAYTLQKGESSVVKALDKESPIQYGMIWGSGALIGQKEQNVEFKVMTPEIGVPFVTEQTMVLSTSKKQALAKEFIDWFGQSEIQVEYSKKFGSIPANKDALKELPEDTKKFVDQVKPQNIDWEAVGKHLDEWVEKAELEYVK	6.92 ± 0.08 nM	–
SPD_0227 (natural protein, SPD_0227, intracellular iron transporter of S. pneumoniae D39) MNIEGYSDLLKPELKGKIATADPANSSSAFAQLTNMLQAQGGYKDDKAWSYVKDLFTLIDGIVK	420 ± 30 nM	–
B1	–	stoichiometry N [6]: 4
